From publication PMC6581901, “The SRP signal sequence of KdpD” (Scientific Reports, 2019)
Where a chain is given by its changes, count along the chain named.

Assays:
[1] = target: T1, SRP reconstituted from wild-type Ffh (406C) and 4.5S RNA (E. coli, UniProt P0AGD7 1-453); test: cross-linking; disulfide cross-linking with 1 mM copper phenanthroline; 2 µM reconstituted SRP (Ffh + 3 µM 4.5S RNA) with 20 µM peptide, 1 h on ice, 50 mM Tris pH 7.4, 150 mM NaCl, 10 mM MgCl2; TCA precipitation, SDS-PAGE with or without DTT; conditions: both partners purified
T1 construct: Ffh (fifty-four-homolog), 48-kDa protein component of E. coli SRP, expressed from pMS-Ffh-C-Strep; Ribonucleoprotein: Ffh with a 1.5-fold molar excess of 4.5S RNA; the RNA is not written as a chain; also called wildtype SRP; source: E. coli BL21 (DE3), purified (Strep-Tactin, Superdex 75); reconstituted with in vitro transcribed 4.5S RNA
T1 sequence (looked up): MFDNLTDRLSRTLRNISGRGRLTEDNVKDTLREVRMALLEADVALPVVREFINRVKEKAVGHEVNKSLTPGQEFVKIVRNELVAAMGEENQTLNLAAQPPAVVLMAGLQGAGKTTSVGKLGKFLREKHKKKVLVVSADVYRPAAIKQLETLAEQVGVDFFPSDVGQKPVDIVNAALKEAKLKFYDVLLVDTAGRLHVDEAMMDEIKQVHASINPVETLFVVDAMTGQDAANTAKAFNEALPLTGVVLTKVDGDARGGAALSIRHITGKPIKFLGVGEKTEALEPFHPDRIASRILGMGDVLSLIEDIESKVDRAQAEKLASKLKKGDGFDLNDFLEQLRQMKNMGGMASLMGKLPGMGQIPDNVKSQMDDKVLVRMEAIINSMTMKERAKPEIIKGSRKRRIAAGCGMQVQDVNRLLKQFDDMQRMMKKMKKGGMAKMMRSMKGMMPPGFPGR

[2] = target: T2, SRP reconstituted from Ffh 406S/423C and 4.5S RNA (E. coli, UniProt P0AGD7 1-453, M423C | C406S); test: as above; conditions: both partners purified
T2 construct: Ffh of E. coli SRP with a cysteine at 423 (M domain pocket) and a serine at 406, from pMS-Ffh-M423C-C-Strep; Ribonucleoprotein with 4.5S RNA; also called SRP 423; Ffh M423C; source: E. coli BL21 (DE3), purified (Strep-Tactin, Superdex 75); reconstituted with in vitro transcribed 4.5S RNA
T2 sequence (looked up): T1 sequence (looked up) with C406S, M423C

B1: KdpD peptide (residues 22-48), in vitro synthesized (peptide)
peptide: Ac-RGKLKVFFGACAGVGKTWAMLAEAQRL-NH2
notes: also called KdpD22-48; KdpD22–48 peptide; source: synthetic peptide (GENOSPHERE Biotechnologies, purity >95%)
- binding result [1]: binds
- binding result [2]: binds
